Fewer inactive variants are shown than the library holds.
B1: TPR 5TU (parent)
chain: GGAUCUUCUCGAUCUAACAAAAAAGACAAAUCUGCCACAAAGCUUGAGAGCAUCUUCGGAUGCAGAGGCGGCAGCCUUCGGUGGCGCGAUAGCGCCAACGUUCUCAACUAUGACACGCAAAACGCGUGCUCCGUUGAAUGGAGUUUAUCAUG

Variants of: B1
Assay: polymerase ribozyme fitness, log enrichment relative to wild type (log ratio); higher = more active; in vitro selection for triplet polymerase activity
Outline: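 Only genotypes with ≥10 input reads and ≥1 read per output were kept after Illumina sequencing of input and output libraries. These libraries were PCR-built, transcribed mutants of each subunit of a heterodimeric triplet polymerase ribozyme, each put through one triplicate in vitro selection round with frozen incubation at −7 °C, gel excision of extended constructs, streptavidin-bead capture and RT-PCR. Fitness is a logarithmic ratio of genotype enrichment to wild-type enrichment, from inverse-variance-weighted replicate averages, with the logarithm in base 2.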

Variant	polymerase ribozyme fitness (log ratio)
GGAUCUUCUCGAUCUAACAAAAAAGACAAAUCUGCCACAGAGCUUGAGAGCAUCUACGGAUGCAGAGGCGGCAGCCUUCGGUGGCGCGAUAGCGCCAAUGUUCUCAACUAUGACACGCAAAACGCGUGCUCCGUUGAAUGGAGUUUAUCAUG [A40G U56A C99U]	-2.66
GGAUCUUCUCGAUUUAACAAAAAAGACAAAUCUGCCACAAAGCUUGAGAGCAUCUUCUGAUGCAGAGGCGGCAGCCUUCGGUGGCGCGAUAGCGCCAACGUUCUCAACUAUGACACGCAAAACGCGUGCUCCGUUGAAUGGAGUUUAUCAUG [C14U G58U]	-0.884
GGAUCUUCUCGAUCUAACAAAAAAGACAAAUCUGCCACUAAGCUUGAGAGCCUCUUUCGAUGCAGAGGCGGCAGCCUUCGGUGGCGCGAUAGCGCCAACGUUCUCAACUAUGACACGCAAAACGCGUGCUCCGUUGAAUGGAGUUUAUCAUG [A39U A52C C57U G58C]	-3
GGAUCUUCUCGAUCUAACAAAAAAGGCAAAUCUGCCACACAGCUUGAGAGCAUCUUCGGAUGCAGAGUCGGCAGCCUUCGGUGGCGCGAUAGCGCCAACGUUCUCAACUAUGACACGCAAAACGCGUGCUCCGUUGAAUGGAGUUUAUCAUG [A26G A40C G68U]	≤ -4.2
GGAUCUUCUCGAUCUCACAACAAAGACAAAUCUGCCACAAAGCUUGAGAACAUCUUCGGAUGCAGAGGCGGCAGCCUUCGGUGGUGCGAUAGCGCCAACGUUCUCAACUAUGACACGCAAAACGGGUGCUCCGUUGAAUGGAGUUUAUCAUG [A16C A21C G50A C85U C125G]	-2.99
GGAUCUUCUCGAUCUAACAAAAAAGACAAAUAUGCCACAAAGCUUGAGAGCAUCUUCGGAUGCAGAGGAGGCAGCCUUCGGUGGCGCGAUAGCGCCAACGUUCUCAACUAUGACACGCAAAACGCGUGCUCCGUUGAAUGGAGUCUAUCAUG [C32A C69A U145C]	-3.25
GGAACUUCUCGAUCUAACAAAAAAGACAAAUCUGACACAAAGCUUGAGAGCACCUUCGGAUGCAGAGGCGGCAGCCUUCGGUGGCGCGAUAGCGCGAACGUUCUCAACUAUGACACGCAAAUCGCGUGCUCCGUUGAAUGGAGUUUAUCAUG [U4A C35A U53C C96G A122U]	≤ -4.2
GGAUCUUCUCGAUCUAACAAAAAAGACAAAUCUGCCACAAAGCUUGAGAGCAUCUUCGAAUGCAGAGGCGGCAGCCUUCGGUGGGGCGAUAGCGCCAACGUUCUCAACUAUGACACGCAAAACGCGUGCUCCGUUGAAUGGAGUUUAUCAUG [G59A C85G]	-2.1
GGAUCUUCUCGAUUUAACAAAAAAGACAAAUCUGCAACAAAGCUUGAGAGCAUCUUCGGAUGCAGAGGCGGCGGCCUUCGGUAGCACGAUAGCGCCAACGUUCUCAACUAUGACACGCAAAACGCGUGCUCCGUUGAAUGGAGUUUAUCAUG [C14U C36A A73G G83A G86A]	≤ -4.2
GGAUCUUCUCGAUCUAACAAAAUAGACAAAUCUGCCACAAAGCUUGAGAGCAUCUUCGGAUGCAGAGGCGGCAGCCUUCGGUGGCGCGAUAGCGCCAACGUUCUCAACUAUGACACGUAAAACGCGUGCUCCGUUGAAUGGAGUUUAUCAUG [A23U C118U]	-3.62
GGAGCUUCUCGAUCUAACAAAAAAGACAAAUCUGCCACAAAGCUUGAGAGCAUCUUCGGAAGCAGAGGCGGCAGCCUUCGGUGGCGCAAUAGCGCCAACGUUCUCAACUAUGACACGCAAAACGCGUGCUCCGUUGAAUGGAGUUUAUCAUG [U4G U61A G88A]	≤ -4.2
GGAUCUUCUCGAUCUAACAAAAAAGACAAGUCUGCCACAAAGCUUGAGAGCAUCUUUGGAUGCAGAGGCGGCAGCCUUCGGUGGCGCGAUAGCGCCAACGUUCUCAACUAUGACACGCAAAACGCGUGCUCCGUUGAAUGGAGUUUAUCAUG [A30G C57U]	-2.81
GGAUCUUCUCGAUCUAACAAAAAAGACAAAUCUGCCAUAAAGCUUGAGAGCAUCUUCGCAUGCAGAGGCGGCAGCCUUCGGUGGCGCGAUAGCGUCAUCGUUGUCAACUAUGACACGCAAAACGCGUGCUCCGUUGAAUGGAGUUUAGCAUG [C38U G59C C95U A98U C103G U148G]	≤ -4.2
GGAUCUUCUCGAUCUAACAAAAAAGACAAAUCUGCCACACAGCUUGAGAGCAUCUUCGGAUGCAGAGGCGGCAGCCUUCGGUGGCGCGAUAGCGCCAACGUUCUCAACUAUGACACGCAAAACGCGUGCUCCGUUGAAUGUAGUUUAUCAUG [A40C G141U]	1.43
GGAUCUUCUCGAUCUAACAAAAAAGACAAAUCUGCCACAAAGCUUGAGAGCAUCUUCGGAUGCAGAGGCGGCAGCCUUCGGUGGCGCGAUAUCGCCAACGUUCUCAACUAUGACACGCAAAACGCGUGCUCCGUUGAAUGGAGUUUAUUAUG [G92U C149U]	-1.29
GGAUCUUCUCGAUCUAACAAAAAAGACAAAUCUGCCACAAAGCUUGAGAGCAUCUUCGGAUGCAGAGGCGGCAGCCUUCGGUGGCGCGAUAGCGCCAACGUUCUCAACUAUGACACGCAAAACGCGUUCUCCGUUGAAUGAAGUUUAUCAUG [G128U G141A]	-3.74
GGAUCUUCUCGAUCUAACAAAAAAGACAAAUCUGCCACAAAGCUUGAGAGUAUCUGCGGAUGCAGAGGCGGCAGUCUUCGGUGGCGCGAUAGCGCCAACGUUCUCAACUAUGACACGCAAAACGCGUGCUCCGCUGAAUGGAGUUUAUCAUG [C51U U56G C75U U134C]	-2.81
GGAUCUUCUCCAUCUAUCAAAAUAGACAAAUCUGCCAUAAAGCUUGAGAGCAUCUUCGGAUGCAGAGGCGGCAGCCUUCGGUGGCGCGAUAGCGUCAACGUUCUCAACUAUGACACGCAAAACGCGUGCUCCGUUGAGUGGAGUUUAUCAUG [G11C A17U A23U C38U C95U A138G]	≤ -4.2
GGAUCUUCUCGAUCCAACAAAAAAGACAAAUCUGCCACAAAGCUUGAGAGCAUCUACGGAUGCAGAGGCGGCAGCCUUCGGUGGCGCGAUAGCACCAACGUUCUCAACUAUGACACGCAAAACGCGUGCUCCGUUGAAUGGGGUUUAUCAUG [U15C U56A G94A A142G]	-0.297
